Measured values reported in doi:10.1101/2024.07.11.602925.
pKd: −log10 of the molar value.

Molecular target: His-tagged PTB domain of RABGAP1
Assay: ITC

pKd: 4.21
stoichiometry N: 1
Substance: WT APP tail peptide, starting from the MQQ sequence at position 677 (from UniProt P05067-4 677-695)
